Data reported in patent publication US20260167699A1 (Chugai, published 2026).

T1: FcγRIIb (human, UniProt P31994 43-217)
T1 construct: extracellular domain; also called 2b
T1 sequence: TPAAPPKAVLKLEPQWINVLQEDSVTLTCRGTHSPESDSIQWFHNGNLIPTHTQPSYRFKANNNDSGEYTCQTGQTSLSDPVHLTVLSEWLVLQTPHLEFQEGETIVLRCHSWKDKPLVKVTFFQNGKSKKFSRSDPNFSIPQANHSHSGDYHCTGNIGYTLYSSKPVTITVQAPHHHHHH

T2: FcγRIIa(R) (human, UniProt P12318 34-217)
T2 construct: extracellular domain; also called 2aR
T2 sequence: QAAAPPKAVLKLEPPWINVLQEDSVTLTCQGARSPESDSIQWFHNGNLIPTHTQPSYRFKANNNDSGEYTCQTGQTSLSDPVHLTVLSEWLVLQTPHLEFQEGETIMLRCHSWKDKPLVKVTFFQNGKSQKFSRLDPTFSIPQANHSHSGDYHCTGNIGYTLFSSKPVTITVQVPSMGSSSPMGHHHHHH

T3: FcγRIIa(H) (human, UniProt P12318 34-217)
T3 construct: extracellular domain; also called 2aH
T3 sequence: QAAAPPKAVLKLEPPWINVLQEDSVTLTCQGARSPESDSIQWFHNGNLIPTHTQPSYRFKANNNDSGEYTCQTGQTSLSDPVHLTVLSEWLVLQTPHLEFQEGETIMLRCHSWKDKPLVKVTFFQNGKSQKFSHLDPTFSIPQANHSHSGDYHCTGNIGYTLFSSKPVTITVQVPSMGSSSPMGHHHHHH


How the values were obtained:
Assay in all cases: SPR, relative to GpH7-A5/GpH7-B3/GpL16-k0 =100
FcγRIIb = biological target: T1, FcγRIIb
FcγRIIa(R) = biological target: T2, FcγRIIa(R)
FcγRIa = biological target: T4, FcγRIa (human, UniProt P12314 16-292)
T4 construct: extracellular domain; also called 1a

FcγRIIa(H) = biological target: T3, FcγRIIa(H)

T4 sequence (P12314 other isoform, or with tags, fused parts or gaps): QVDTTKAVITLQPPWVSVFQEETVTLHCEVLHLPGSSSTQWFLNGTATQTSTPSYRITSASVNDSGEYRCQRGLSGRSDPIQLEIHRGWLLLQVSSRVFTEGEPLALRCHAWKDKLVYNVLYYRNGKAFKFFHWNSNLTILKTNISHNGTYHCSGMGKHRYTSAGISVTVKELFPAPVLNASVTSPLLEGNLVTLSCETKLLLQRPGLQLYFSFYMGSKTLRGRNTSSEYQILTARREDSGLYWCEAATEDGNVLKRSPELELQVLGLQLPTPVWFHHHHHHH

Binder	He/Con 2b (FcγRIIb)	He/Con 2aR (FcγRIIa(R))	He/Con 1a (FcγRIa)	He/Con 2aH (FcγRIIa(H))
GpH7-A5/GpH7-B3 variant Y296_12R/GpL16-k0 (antibody, human IgG1, kappa, He Ab: heterodimerized IgG1, one H chain mutated) heavy 1: not shown heavy 2: not shown light: DIVMTQSPLSLPVTPGEPASISCQASESLVHSNRNTYLHWYLQKPGQSPQLLIYKVSNRFSGVPDRFSGSGSGTDFTLKISRVEAEDVGVYYCSQNTHVPPTFGQGTKVEIERTVAAPSVFIFPPSDEQLKSGTASVVCLLNNFYPREAKVQWKVDNALQSGNSQESVTEQDSKDSTYSLSSTLTLSKADYEKHKVYACEVTHQGLSSPVTKSFNRGEC	80.5%	95.3%	103%	89.1%
GpH7-A5/GpH7-B3 variant Y296_13S/GpL16-k0 (antibody, human IgG1, kappa, He Ab: heterodimerized IgG1, one H chain mutated) heavy 1: not shown heavy 2: not shown light: DIVMTQSPLSLPVTPGEPASISCQASESLVHSNRNTYLHWYLQKPGQSPQLLIYKVSNRFSGVPDRFSGSGSGTDFTLKISRVEAEDVGVYYCSQNTHVPPTFGQGTKVEIERTVAAPSVFIFPPSDEQLKSGTASVVCLLNNFYPREAKVQWKVDNALQSGNSQESVTEQDSKDSTYSLSSTLTLSKADYEKHKVYACEVTHQGLSSPVTKSFNRGEC	87.5%	97.5%	102%	96.1%
GpH7-A5/GpH7-B3 variant Y296_14T/GpL16-k0 (antibody, human IgG1, kappa, He Ab: heterodimerized IgG1, one H chain mutated) heavy 1: not shown heavy 2: not shown light: DIVMTQSPLSLPVTPGEPASISCQASESLVHSNRNTYLHWYLQKPGQSPQLLIYKVSNRFSGVPDRFSGSGSGTDFTLKISRVEAEDVGVYYCSQNTHVPPTFGQGTKVEIERTVAAPSVFIFPPSDEQLKSGTASVVCLLNNFYPREAKVQWKVDNALQSGNSQESVTEQDSKDSTYSLSSTLTLSKADYEKHKVYACEVTHQGLSSPVTKSFNRGEC	89.4%	98.6%	102%	97.2%
GpH7-A5/GpH7-B3 variant Y296_16H/GpL16-k0 (antibody, human IgG1, kappa, He Ab: heterodimerized IgG1, one H chain mutated) heavy 1: not shown heavy 2: not shown light: DIVMTQSPLSLPVTPGEPASISCQASESLVHSNRNTYLHWYLQKPGQSPQLLIYKVSNRFSGVPDRFSGSGSGTDFTLKISRVEAEDVGVYYCSQNTHVPPTFGQGTKVEIERTVAAPSVFIFPPSDEQLKSGTASVVCLLNNFYPREAKVQWKVDNALQSGNSQESVTEQDSKDSTYSLSSTLTLSKADYEKHKVYACEVTHQGLSSPVTKSFNRGEC	93.5%	100%	103%	101%
GpH7-A5/GpH7-B3 variant Y296_18N/GpL16-k0 (antibody, human IgG1, kappa, He Ab: heterodimerized IgG1, one H chain mutated) heavy 1: not shown heavy 2: not shown light: DIVMTQSPLSLPVTPGEPASISCQASESLVHSNRNTYLHWYLQKPGQSPQLLIYKVSNRFSGVPDRFSGSGSGTDFTLKISRVEAEDVGVYYCSQNTHVPPTFGQGTKVEIERTVAAPSVFIFPPSDEQLKSGTASVVCLLNNFYPREAKVQWKVDNALQSGNSQESVTEQDSKDSTYSLSSTLTLSKADYEKHKVYACEVTHQGLSSPVTKSFNRGEC	92.8%	99.6%	102%	101%
GpH7-A5/GpH7-B3 variant Y296_19Q/GpL16-k0 (antibody, human IgG1, kappa, He Ab: heterodimerized IgG1, one H chain mutated) heavy 1: not shown heavy 2: not shown light: DIVMTQSPLSLPVTPGEPASISCQASESLVHSNRNTYLHWYLQKPGQSPQLLIYKVSNRFSGVPDRFSGSGSGTDFTLKISRVEAEDVGVYYCSQNTHVPPTFGQGTKVEIERTVAAPSVFIFPPSDEQLKSGTASVVCLLNNFYPREAKVQWKVDNALQSGNSQESVTEQDSKDSTYSLSSTLTLSKADYEKHKVYACEVTHQGLSSPVTKSFNRGEC	90.5%	97.9%	108%	94.3%
GpH7-A5/GpH7-B3 variant Y296_20W/GpL16-k0 (antibody, human IgG1, kappa, He Ab: heterodimerized IgG1, one H chain mutated) heavy 1: not shown heavy 2: not shown light: DIVMTQSPLSLPVTPGEPASISCQASESLVHSNRNTYLHWYLQKPGQSPQLLIYKVSNRFSGVPDRFSGSGSGTDFTLKISRVEAEDVGVYYCSQNTHVPPTFGQGTKVEIERTVAAPSVFIFPPSDEQLKSGTASVVCLLNNFYPREAKVQWKVDNALQSGNSQESVTEQDSKDSTYSLSSTLTLSKADYEKHKVYACEVTHQGLSSPVTKSFNRGEC	105%	105%	107%	95.4%

Results, then the binder that gave them:

He/Con 2b (FcγRIIb)	He/Con 2aR (FcγRIIa(R))	He/Con 1a (FcγRIa)	He/Con 2aH (FcγRIIa(H))	Binder
63.2%	66.6%	110%	82.6%	GpH7-A5/GpH7-B3 variant Y300_01G/GpL16-k0 (antibody, human IgG1, kappa, He Ab: heterodimerized IgG1, one H chain mutated) heavy 1: not shown heavy 2: not shown light: DIVMTQSPLSLPVTPGEPASISCQASESLVHSNRNTYLHWYLQKPGQSPQLLIYKVSNRFSGVPDRFSGSGSGTDFTLKISRVEAEDVGVYYCSQNTHVPPTFGQGTKVEIERTVAAPSVFIFPPSDEQLKSGTASVVCLLNNFYPREAKVQWKVDNALQSGNSQESVTEQDSKDSTYSLSSTLTLSKADYEKHKVYACEVTHQGLSSPVTKSFNRGEC
90.5%	92.9%	106%	104%	GpH7-A5/GpH7-B3 variant Y300_02A/GpL16-k0 (antibody, human IgG1, kappa, He Ab: heterodimerized IgG1, one H chain mutated) heavy 1: not shown heavy 2: not shown light: DIVMTQSPLSLPVTPGEPASISCQASESLVHSNRNTYLHWYLQKPGQSPQLLIYKVSNRFSGVPDRFSGSGSGTDFTLKISRVEAEDVGVYYCSQNTHVPPTFGQGTKVEIERTVAAPSVFIFPPSDEQLKSGTASVVCLLNNFYPREAKVQWKVDNALQSGNSQESVTEQDSKDSTYSLSSTLTLSKADYEKHKVYACEVTHQGLSSPVTKSFNRGEC
96.5%	96.8%	110%	109%	GpH7-A5/GpH7-B3 variant Y300_03V/GpL16-k0 (antibody, human IgG1, kappa, He Ab: heterodimerized IgG1, one H chain mutated) heavy 1: not shown heavy 2: not shown light: DIVMTQSPLSLPVTPGEPASISCQASESLVHSNRNTYLHWYLQKPGQSPQLLIYKVSNRFSGVPDRFSGSGSGTDFTLKISRVEAEDVGVYYCSQNTHVPPTFGQGTKVEIERTVAAPSVFIFPPSDEQLKSGTASVVCLLNNFYPREAKVQWKVDNALQSGNSQESVTEQDSKDSTYSLSSTLTLSKADYEKHKVYACEVTHQGLSSPVTKSFNRGEC
106%	103%	102%	103%	GpH7-A5/GpH7-B3 variant Y300_04F/GpL16-k0 (antibody, human IgG1, kappa, He Ab: heterodimerized IgG1, one H chain mutated) heavy 1: not shown heavy 2: not shown light: DIVMTQSPLSLPVTPGEPASISCQASESLVHSNRNTYLHWYLQKPGQSPQLLIYKVSNRFSGVPDRFSGSGSGTDFTLKISRVEAEDVGVYYCSQNTHVPPTFGQGTKVEIERTVAAPSVFIFPPSDEQLKSGTASVVCLLNNFYPREAKVQWKVDNALQSGNSQESVTEQDSKDSTYSLSSTLTLSKADYEKHKVYACEVTHQGLSSPVTKSFNRGEC
110%	105%	106%	116%	GpH7-A5/GpH7-B3 variant Y300_06M/GpL16-k0 (antibody, human IgG1, kappa, He Ab: heterodimerized IgG1, one H chain mutated) heavy 1: not shown heavy 2: not shown light: DIVMTQSPLSLPVTPGEPASISCQASESLVHSNRNTYLHWYLQKPGQSPQLLIYKVSNRFSGVPDRFSGSGSGTDFTLKISRVEAEDVGVYYCSQNTHVPPTFGQGTKVEIERTVAAPSVFIFPPSDEQLKSGTASVVCLLNNFYPREAKVQWKVDNALQSGNSQESVTEQDSKDSTYSLSSTLTLSKADYEKHKVYACEVTHQGLSSPVTKSFNRGEC
97.4%	90.9%	102%	120%	GpH7-A5/GpH7-B3 variant Y300_07I/GpL16-k0 (antibody, human IgG1, kappa, He Ab: heterodimerized IgG1, one H chain mutated) heavy 1: not shown heavy 2: not shown light: DIVMTQSPLSLPVTPGEPASISCQASESLVHSNRNTYLHWYLQKPGQSPQLLIYKVSNRFSGVPDRFSGSGSGTDFTLKISRVEAEDVGVYYCSQNTHVPPTFGQGTKVEIERTVAAPSVFIFPPSDEQLKSGTASVVCLLNNFYPREAKVQWKVDNALQSGNSQESVTEQDSKDSTYSLSSTLTLSKADYEKHKVYACEVTHQGLSSPVTKSFNRGEC
96.1%	96.9%	107%	120%	GpH7-A5/GpH7-B3 variant Y300_08L/GpL16-k0 (antibody, human IgG1, kappa, He Ab: heterodimerized IgG1, one H chain mutated) heavy 1: not shown heavy 2: not shown light: DIVMTQSPLSLPVTPGEPASISCQASESLVHSNRNTYLHWYLQKPGQSPQLLIYKVSNRFSGVPDRFSGSGSGTDFTLKISRVEAEDVGVYYCSQNTHVPPTFGQGTKVEIERTVAAPSVFIFPPSDEQLKSGTASVVCLLNNFYPREAKVQWKVDNALQSGNSQESVTEQDSKDSTYSLSSTLTLSKADYEKHKVYACEVTHQGLSSPVTKSFNRGEC
122%	105%	106%	101%	GpH7-A5/GpH7-B3 variant Y300_09D/GpL16-k0 (antibody, human IgG1, kappa, He Ab: heterodimerized IgG1, one H chain mutated) heavy 1: not shown heavy 2: not shown light: DIVMTQSPLSLPVTPGEPASISCQASESLVHSNRNTYLHWYLQKPGQSPQLLIYKVSNRFSGVPDRFSGSGSGTDFTLKISRVEAEDVGVYYCSQNTHVPPTFGQGTKVEIERTVAAPSVFIFPPSDEQLKSGTASVVCLLNNFYPREAKVQWKVDNALQSGNSQESVTEQDSKDSTYSLSSTLTLSKADYEKHKVYACEVTHQGLSSPVTKSFNRGEC
175%	127%	108%	108%	GpH7-A5/GpH7-B3 variant Y300_10E/GpL16-k0 (antibody, human IgG1, kappa, He Ab: heterodimerized IgG1, one H chain mutated) heavy 1: not shown heavy 2: not shown light: DIVMTQSPLSLPVTPGEPASISCQASESLVHSNRNTYLHWYLQKPGQSPQLLIYKVSNRFSGVPDRFSGSGSGTDFTLKISRVEAEDVGVYYCSQNTHVPPTFGQGTKVEIERTVAAPSVFIFPPSDEQLKSGTASVVCLLNNFYPREAKVQWKVDNALQSGNSQESVTEQDSKDSTYSLSSTLTLSKADYEKHKVYACEVTHQGLSSPVTKSFNRGEC
